# In patent US20020076693A1, “Novel cell surface receptor for HIV retroviruses, therapeutic and diagnostic uses” (priority 1997, published 2002):
# B1: MIP-1α: β chemokine (protein, UniProt P10147 24-92, looked up)
# C-C motif chemokine 3: SLAADTPTACCFSYTSRQIPQNFIADYFETSSQCSKPGVIFLTKRSRQVCADPSEEWVQKYVSDLELSA
# B2: MIP-1β: β chemokine (protein, UniProt P13236 24-92, looked up)
# C-C motif chemokine 4: APMGSDPPTACCFSYTARKLPRNFVVDYYETSSLCSQPAVVFQTKRSKQVCADPSESWVQEYVYDLELN
# B3: Rantes: β chemokine, natural ligand of CCR5 (protein, UniProt P13501 24-91, looked up)
# C-C motif chemokine 5: SPYSSDTTPCCFAYIARPLPRAHIKEYFYTSGKCSNPAVVFVTRKNRQVCANPEKKWVREYINSLEMS
# System: HIV-1 Bal
# Assay: Infection of human monocyte-derived macrophages by HIV-1 (p24)
# Format: cell-based
# Settings: HIV-1 BaL (TASP also Ada); p24 in supernatant
# Description: Macrophages are infected with BaL or Ada HIV-1 viruses, in the presence of 2 μM, 1 μM or 0.1 μM of 5[Kψ (CH2N)PR]-TASP. Cells are preincubated during 30 min at 4° C. in the presence of 5[Kψ (CH2N)PR]-TASP before adding the virus. Every 3 days interval, the whole culture supernatant is collected and is replaced by RPMI 1640 culture medium supplemented with 20% fetal calf serum (FCS), 1% antibiotics, 1% glutamine, in addition to 5[Kψ (CH2N)PR]-TASP that is kept present in the culture medium until day 14 after in vitro infection. Virus production is quantitated by titration of p24 protein in the culture supernatant at different times (days) after in vitro infection. Each value represented in the graphs represents the mean of two test samples.
# Macrophages are infected by the BaL VIH-1 virus in the presence of 100 μg/ml of anti-P95, anti-P40 and anti-P30 antibody. Cells are preincubated during 30 min at 4° C. in the presence of each kind of antibody before adding the virus. The antibodies are kept present in the culture medium during the whole infection period of time. The experimental conditions are identical to those detailed in 4 +L4. The results are representative of two independent experiments.
# Cells are preincubated during 30 min at 4° C. in the presence of the different molecules either alone or in association before adding the virus. Every three days period, the whole culture supernatant is collected and is replaced by RPMI 1640 culture medium supplemented with 20% fetal calf serum (FCS), 1% antibiotics, 1% glutamine, in addition to each tested molecule. Virus production is quantitated by titration of p24 protein in the culture supernatant at different times (days) after in vitro infection. Every value reprented in the graphs represents the mean of two test samples.
row,Molecule,effect on infection of human macrophages by HIV-1
1,B1,weaker inhibitory effect
2,B2,inhibit
3,B3,inhibit
